These results are taken from patent US20170210819A1.

The target of assay [1] is EGFR (human) (UniProt P00533). Briefly: flow cytometry on U2OS cells; histogram shifted to between 10^1 and 10^2, partly overlapping the control; 'No antibody' panel shows 6.17. (In general: Flow cytometry measures light scatter and fluorescence of single cells or particles in a stream.)
In assay [2] the target is EGFR (human) (UniProt P00533). Briefly: flow cytometry on PCI-30 cells; main peak between 10^2 and 10^3 with a tail toward the control; 'No antibody' panel shows 13.1.
For assay [3], the target named is EGFR (human) (UniProt P00533). Briefly: flow cytometry on HeLa cells; histogram shifted to between 10^2 and 10^3; 'No antibody' panel shows 5.56.
The target of the next assay is antigen CD3 (Biacore). Briefly: SPR (Biacore), antigen CD3. (SPR reads the build-up and loss of mass on a sensor chip optically.)

As to EGFR 528 (phb 704) (antibody), the MFI is 26.8 in the assay with EGFR (human) [1], 388 with EGFR (human) [2] and 586 with EGFR (human) [3].

B1: huOKT3 IgG1-aGlyco (antibody, V domains shown)
VH: QVQLVQSGGGVVQPGRSLRLSCKASGYTFTRYTMHWVRQAPGKGLEWIGYINPSRGYTNYNQKFKDRFTISRDNSKNTAFLQMDSLRPEDTGVYFCARYYDDHYCLDYWGQGTPVTVSS
VL: DIQMTQSPSSLSASVGDRVTITCSASSSVSYMNWYQQTPGKAPKRWIYDTSKLASGVPSRFSGSGSGTDYTFTISSLQPEDIATYYCQQWSSNPFTFGQGTKLQITR
The Kd is the concentration at which binding is half-saturated. High values mean weaker binding, low ones tighter binding. Broadly, the koff is the first-order rate constant of dissociation. Read a low koff as slow dissociation. Broadly, the kon is a measure of how fast the partners come together. Low readings indicate slow association, high ones fast association. B1: in the assay with antigen CD3 (Biacore), the Kd is 64.6 nM, the koff came to 0.109 s⁻¹ and the kon is 1.68e+06 M⁻¹ s⁻¹.
